In publication PMC12449476, “Transient ligand contacts of the intrinsically disordered N-terminus of neuropeptide Y2 receptor regulate arrestin-3 recruitment” (Nature Communications, 2025):
Where a chain is given by its changes, count along the chain named.

Columns and labels:
WT Nluc-Y2R-eYFP = target: T1, WT Nluc-Y2R-eYFP (Homo sapiens, UniProt P49146); conditions: cited from earlier work
T1 construct: expressed in transfected cells; host or cells: membrane preparations of transiently transfected HEK293
T1 sequence (P49146 1-381): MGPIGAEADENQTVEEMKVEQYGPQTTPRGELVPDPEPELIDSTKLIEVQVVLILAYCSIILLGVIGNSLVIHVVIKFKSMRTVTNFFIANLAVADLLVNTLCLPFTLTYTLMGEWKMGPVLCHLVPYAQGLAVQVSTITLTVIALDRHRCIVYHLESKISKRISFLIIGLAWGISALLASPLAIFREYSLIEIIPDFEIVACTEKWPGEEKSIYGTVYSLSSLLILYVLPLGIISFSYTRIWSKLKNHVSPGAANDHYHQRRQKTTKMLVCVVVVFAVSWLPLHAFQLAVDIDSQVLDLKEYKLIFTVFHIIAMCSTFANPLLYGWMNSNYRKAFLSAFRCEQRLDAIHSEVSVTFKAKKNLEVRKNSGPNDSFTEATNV
Description: In the following, we are addressing the Reviewer’s comments point‐by‐point. We quote statements from the Reviewer in bold face. We refer to changes made in the manuscript in yellow italics. Reviewer #1 (Remarks to the Author): In this work ...

[1] = target: T2, Nluc-Y2R-eYFP D42A-S43A-T44A (Homo sapiens, UniProt P49146, D42A/S43A/T44A); assay: NanoBRET equilibrium ligand binding
T2 construct: expressed in transfected cells; host or cells: membrane preparations of transiently transfected HEK293
T2 sequence (P49146 1-381 D42A/S43A/T44A): T1 sequence (P49146 1-381) with D42A, S43A, T44A
Experimental: (§1) Briefly, for each data point, membranes containing 0.03 μg total protein were suspended in ice-cold BRET binding buffer (Hank’s balanced salt solution (HBSS) containing 20 mM HEPES (pH 7.4), 0.1% bovine serum albumin (BSA)). The assay was performed in solid black 96-WP with a total assay volume of 100 μL in technical duplicate or triplicate. […] To determine unspecific binding, 100 µM of the Y2R antagonist JNJ-31020028 (Selleck Europe) were added to each well. […] To start the dissociation measurement, the antagonist JNJ-31020028 was added to a final concentration of 50 µM (20 µL) using the built-in injector system of the plate reader and the BRET decay was measured for 20 min. Raw BRET was calculated as the ratio of fluorescence to luminescence, and the background value of the unspecific binding controls was subtracted to obtain the netBRET signal.

Nluc-Y2R-eYFP E15-20K = target: T3, Nluc-Y2R-eYFP E15-20K (Homo sapiens, UniProt P49146, E15K/E16K/E20K); assay: NanoBRET equilibrium ligand binding
T3 construct: expressed in transfected cells; host or cells: membrane preparations of transiently transfected HEK293
T3 sequence (P49146 1-381 E15K/E16K/E20K): T1 sequence (P49146 1-381) with E15K, E16K, E20K
Experimental: as §1

Nluc-Y2R-eYFP D/E35-39K = target: T4, Nluc-Y2R-eYFP D/E35-39K (Homo sapiens, UniProt P49146, D35K/E37K/E39K); assay: NanoBRET equilibrium ligand binding
T4 construct: expressed in transfected cells; host or cells: HEK293, transiently transfected, membrane preparations
T4 sequence (P49146 1-381 D35K/E37K/E39K): T1 sequence (P49146 1-381) with D35K, E37K, E39K
Experimental: as §1

## K18-Tamra-NPY: tetramethylrhodamine(Tamra)-labeled peptide (K^18-Tamra-NPY)
WT Nluc-Y2R-eYFP; G-protein-dependent high-affinity state
  KD,high: subnanomolar
WT Nluc-Y2R-eYFP; G-protein-independent low-affinity state
  Kd: ~300 nM
[1]; HEK293 membranes, 10 min RT, mean, 95% CI 0.0040 to 0.0080
  BRETmax: 0.0060
[1]; NanoBRET, HEK293 membranes
  Low-affinity state affinity reduction vs wild-type: about three-fold reduced
[1]; mean, 95% CI 0.0649 to 0.2365, P<0.01 vs WT
  Fraction high affinity: 0.1507
[1]; replicate 1
  KD, high replicates (log): -9.81
  KD, low replicates (log): -6.11
[1]; replicate 2
  KD, high replicates (log): -11.68
  KD, low replicates (log): -6.26
[1]; replicate 3
  KD, high replicates (log): -9.11
  KD, low replicates (log): -5.98
Nluc-Y2R-eYFP E15-20K; HEK293 membranes, 10 min RT, mean, 95% CI 0.0243 to 0.0371
  BRETmax: 0.0307
Nluc-Y2R-eYFP E15-20K; mean, 95% CI 0.0705 to 0.0862
  Fraction high affinity: 0.0783
Nluc-Y2R-eYFP E15-20K; replicate 1
  KD, high replicates (log): -9.24
  KD, low replicates (log): -6.58
Nluc-Y2R-eYFP E15-20K; replicate 2
  KD, high replicates (log): -9.21
  KD, low replicates (log): -6.52
Nluc-Y2R-eYFP E15-20K; replicate 3
  KD, high replicates (log): -9.93
  KD, low replicates (log): -6.58
Nluc-Y2R-eYFP D/E35-39K; HEK293 membranes, 10 min RT, mean, 95% CI 0.025 to 0.0287
  BRETmax: 0.0270
Nluc-Y2R-eYFP D/E35-39K; mean, 95% CI 0 to 0.1938
  Fraction high affinity: 0.0957
Nluc-Y2R-eYFP D/E35-39K; replicate 1
  KD, high replicates (log): -9.38
  KD, low replicates (log): -6.53
Nluc-Y2R-eYFP D/E35-39K; replicate 2
  KD, high replicates (log): -9.46
  KD, low replicates (log): -6.67
Nluc-Y2R-eYFP D/E35-39K; replicate 3
  KD, high replicates (log): -10.11
  KD, low replicates (log): -6.65
